Sequences and labels used below:
B1: NECAB1 (parent)
chain: NLDTEELCEYFSQHLGEYENVLAA
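Also: lentivirally expressed fusions sorted by FACS into six bins by GFP to DsRed ratio, PSI derived from sequencing read proportions per bin multiplied by bin number.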

Variants of B1 are the subject of this series. The series is described as follows: protein stability index of a GFP-peptide fusion (GPS, HEK-293T) (PSI 1-6); higher = more stable. Particulars: c terminus: a fixed tail appended.
Take NSDTEELCEYFSQHLGEYENVLAA: the protein stability index is 4.11.

For NMDTEELCEYFSQHLGEYENVLAA, the protein stability index turned out to be 3.46.

In the case of NIDTEELCEYFSQHLGEYENVLAA, the protein stability index came out at 2.23.

For the variant NTDTEELCEYFSQHLGEYENVLAA, the protein stability index is 3.52.

For WLDTEELCEYFSQHLGEYENVLAA, the protein stability index turned out to be 1.71.

As for MLDTEELCEYFSQHLGEYENVLAA, the protein stability index is 3.17.

On to VLDTEELCEYFSQHLGEYENVLAA, for which the protein stability index stood at 3.12.

With HLDTEELCEYFSQHLGEYENVLAA, the protein stability index turned out to be 3.35.

As to CLDTEELCEYFSQHLGEYENVLAA, the protein stability index amounted to 2.67.

As for PLDTEELCEYFSQHLGEYENVLAA, the protein stability index worked out at 3.68.

Take NLDTEELCEEFSQHLGEYENVLAA: the protein stability index stood at 4.69.

Turning to NLDTEELCEMFSQHLGEYENVLAA, the protein stability index came to 4.18.

As for NLDTEELCEDFSQHLGEYENVLAA, the protein stability index was 4.99.

With NLDTEELCENFSQHLGEYENVLAA, the protein stability index is 4.58.

Take NLDTEELCEFFSQHLGEYENVLAA: the protein stability index is 3.17.

As for NLDTEELCEYLSQHLGEYENVLAA, the protein stability index turned out to be 2.

For the variant NLDTEELCEYDSQHLGEYENVLAA, the protein stability index worked out at 4.87.

Regarding NLDTEELCEYNSQHLGEYENVLAA, the protein stability index was 5.01.

NLDTEELCEYHSQHLGEYENVLAA: the protein stability index came out at 4.26.

As to NLDTEELCEYFSQHLGEYRNVLAA, the protein stability index was 1.84.

NLDTEELCEYFSQHLGEYLNVLAA: the protein stability index came out at 1.82.

Regarding NLDTEELCEYFSQHLGEYVNVLAA, the protein stability index was 1.53.

On to NLDTEELCEYFSQHLGEYKNVLAA, for which the protein stability index came out at 2.67.

Regarding NLDTEELCEYFSQHLGEYANVLAA, the protein stability index came out at 1.66.

For the variant NLDTEELCEYFSPHLGEYENVLAA, the protein stability index was determined as 3.71.

On to NLDTEELCEYFSDHLGEYENVLAA, for which the protein stability index came out at 4.13.

Consider NLDTEELCEYFSKHLGEYENVLAA, for which the protein stability index is 2.36.

NLDTEPLCEYFSQHLGEYENVLAA: the protein stability index came out at 3.82.

As for NLDTEQLCEYFSQHLGEYENVLAA, the protein stability index was determined as 1.64.

As for NLDTESLCEYFSQHLGEYENVLAA, the protein stability index was 1.92.

As for NLDTEFLCEYFSQHLGEYENVLAA, the protein stability index worked out at 2.41.

Turning to NLDTEEMCEYFSQHLGEYENVLAA, the protein stability index was determined as 4.26.

For NLDTEELCPYFSQHLGEYENVLAA, the protein stability index turned out to be 3.97.

As to NLDTEELCIYFSQHLGEYENVLAA, the protein stability index is 2.47.

In the case of NLDTEELCAYFSQHLGEYENVLAA, the protein stability index came out at 1.99.

Consider NLDTEELCEYFSQHLNEYENVLAA, for which the protein stability index came to 1.95.

In the case of NLDTEELCEYFSQHLKEYENVLAA, the protein stability index was found to be 1.81.

NLDTEELCEYFSQHLSEYENVLAA: the protein stability index worked out at 2.48.

On to NLDTEELCEYFCQHLGEYENVLAA, for which the protein stability index came out at 2.53.

Regarding NLDTEELCEYFGQHLGEYENVLAA, the protein stability index stood at 4.

Consider NLDTEELCEYFSQHLGYYENVLAA, for which the protein stability index was determined as 2.65.

For NLDTEELCEYFSQHLGNYENVLAA, the protein stability index is 2.14.

As to NLDTEELCEYFSQHLGTYENVLAA, the protein stability index came to 2.51.

Turning to NLDTEELCEYFSQHLGWYENVLAA, the protein stability index is 2.11.

On to NLDTEELCEYFSQHLGQYENVLAA, for which the protein stability index came out at 1.66.

As to NLDTTELCEYFSQHLGEYENVLAA, the protein stability index turned out to be 2.4.

In the case of NLDTGELCEYFSQHLGEYENVLAA, the protein stability index turned out to be 1.99.

Turning to NLDTSELCEYFSQHLGEYENVLAA, the protein stability index came out at 1.93.

With NLDTFELCEYFSQHLGEYENVLAA, the protein stability index was 1.47.

With NLDTLELCEYFSQHLGEYENVLAA, the protein stability index came out at 1.89.

On to NLDTEELCEYFSQHRGEYENVLAA, for which the protein stability index came out at 3.1.

As for NLDTEELCEYFSQHCGEYENVLAA, the protein stability index came out at 2.92.

With NLDTEELCEYFSQHEGEYENVLAA, the protein stability index was 4.45.

Consider NLDTEELCEYFSQHLGEYENMLAA, for which the protein stability index was 1.88.

For the variant NLDTEELCEYFSQHLGEYENNLAA, the protein stability index was 4.05.

As to NLDTEELCEYFSQHLGEYENLLAA, the protein stability index amounted to 2.76.

In the case of NLDTEELCEYFSQHLGEYENRLAA, the protein stability index was found to be 2.97.

Regarding NLDTEELCEYFSQHLGEYENWLAA, the protein stability index is 1.68.

Turning to NLFTEELCEYFSQHLGEYENVLAA, the protein stability index came to 2.36.

Consider NLKTEELCEYFSQHLGEYENVLAA, for which the protein stability index worked out at 1.86.

NLLTEELCEYFSQHLGEYENVLAA: the protein stability index was 2.01.

NLVTEELCEYFSQHLGEYENVLAA: the protein stability index stood at 1.53.

In the case of NLRTEELCEYFSQHLGEYENVLAA, the protein stability index was found to be 1.59.

As to NLDTEELCEYFSQHLGEQENVLAA, the protein stability index turned out to be 4.61.

Take NLDTEELCEYFSQHLGEMENVLAA: the protein stability index worked out at 3.6.

On to NLDTEELCEYFSQHLGEWENVLAA, for which the protein stability index came out at 1.8.

NLDTEELCEYFSQHLGEKENVLAA: the protein stability index came to 4.71.

In the case of NLDTEELCEYFSQHLGESENVLAA, the protein stability index turned out to be 4.56.

On to NLDTEELCEYFSQHLGETENVLAA, for which the protein stability index was found to be 4.37.

Regarding NLDTEELCEYFSQHLGEHENVLAA, the protein stability index came out at 4.47.

NLDTEELCEYFSQPLGEYENVLAA: the protein stability index was 4.44.

Take NLDTEELCEYFSQMLGEYENVLAA: the protein stability index worked out at 2.98.

Take NLDTEELCEYFSQTLGEYENVLAA: the protein stability index was 4.11.

Take NLDTEELCEYFSQCLGEYENVLAA: the protein stability index amounted to 3.63.

Consider NLDTEELCEYFSQHLGEYENVLAI, for which the protein stability index is 2.26.

On to NLDTEELCEYFSQHLGEYENVLAS, for which the protein stability index is 3.21.

As for NLDTEELCEYFSQHLGEYENVLAV, the protein stability index was 2.8.

Regarding NLDTEELCEYFSQHLGEYENVLAM, the protein stability index was 1.92.

Consider NLDTEELCEYFSQHLGEYENVLAN, for which the protein stability index was 2.02.

Regarding NLDTEELCEYFSQHLGEYENVLAW, the protein stability index is 2.27.

As for NLDTEELCEYFSQHLGEYENVLFA, the protein stability index was 2.28.

On to NLDTEELCEYFSQHLGEYENVLIA, for which the protein stability index is 2.02.

As to NLDTEELCEYFSQHLGEYENVLLA, the protein stability index was found to be 1.75.

Consider NLDTEELCEYFSQHLGEYENVLRA, for which the protein stability index turned out to be 2.51.

NLDTEELCEYFSQHLGEYENVLMA: the protein stability index stood at 2.18.

NLDTEELCEYFSQHLGEYENVLYA: the protein stability index was 2.2.

Take NLDTEELCEYFSQHLGEYENVLWA: the protein stability index stood at 1.91.

With NLDHEELCEYFSQHLGEYENVLAA, the protein stability index came out at 4.26.

NLDFEELCEYFSQHLGEYENVLAA: the protein stability index came out at 2.32.

Take NLDQEELCEYFSQHLGEYENVLAA: the protein stability index amounted to 3.59.

Regarding NLDPEELCEYFSQHLGEYENVLAA, the protein stability index was determined as 3.56.

On to NLDREELCEYFSQHLGEYENVLAA, for which the protein stability index is 3.05.

With NLDMEELCEYFSQHLGEYENVLAA, the protein stability index was 2.66.

Consider NLDTEELCEYFSQHLGEYENVIAA, for which the protein stability index turned out to be 2.53.
